1 molecule from patent US20160319016A1 (GOVERNMENT OF THE UNITED STATES OF AMERICA AS REPRESENTED …, published 2016) can be followed below.

This experiment deals with T1, CMG2 (UniProt P58335 34-489, limits assumed).
T1 construct: whole, on cells; also called ANTXR2; CHO/CMG2
As to the kind of experiment: flow cytometry on CHO/CMG2 cells.

T1 sequence (P58335 34-489 limits assumed): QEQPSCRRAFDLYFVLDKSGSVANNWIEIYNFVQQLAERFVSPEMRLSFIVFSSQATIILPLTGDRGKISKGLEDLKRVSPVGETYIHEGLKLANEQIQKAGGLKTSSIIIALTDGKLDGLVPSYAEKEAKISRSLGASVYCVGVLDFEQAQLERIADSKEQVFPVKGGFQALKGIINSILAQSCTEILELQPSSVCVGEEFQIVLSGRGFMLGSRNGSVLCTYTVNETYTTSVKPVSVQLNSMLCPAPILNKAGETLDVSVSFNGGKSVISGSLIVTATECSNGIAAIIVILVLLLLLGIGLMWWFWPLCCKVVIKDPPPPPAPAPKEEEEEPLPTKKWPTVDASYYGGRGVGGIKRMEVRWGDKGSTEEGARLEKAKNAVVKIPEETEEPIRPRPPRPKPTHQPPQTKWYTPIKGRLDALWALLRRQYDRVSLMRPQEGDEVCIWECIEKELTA

B1: AF334 anti-TEM8 monoclonal antibody (antibody, V domains shown)
VH: QVKLEESGAELVRPGVSVKISCKGSGYTFTDYAMHWVKQSHAKSLEWIGVISTYFGDATYNQKFKGKATMTVDKSSSTAYMELARLTSEDSAIYYCAREDYVPFAYWGQGTLVTVSA
VL: DIVMTQTPPSVPVTPGESVSISCRSSKSLLHSNGNTYLYWFLQRPGQSPQLLIYRMSNLASGVPDRFSGSGSGTAFTLRISRVEAEDVGVYYCMQHLEYPFTFGSGTKLEIKR
Turning to B1, the binding result is reported as “no binding”.
